# Columns and labels:
# [1] = molecular target: +N332 N276Q/N360Q/N463Q (HIV-1 16055 (Indian subtype C)); assay: BLI, trimer on anti-His sensor, Fab analyte
# [2] = molecular target: +N332 N276Q/N360Q/N463Q/N301Q (HIV-1 16055 (Indian subtype C)); assay: BLI, trimer on anti-His sensor, Fab analyte
# [3] = molecular target: +N332 N301Q (HIV-1 16055 (Indian subtype C)); assay: BLI, trimer on anti-His sensor, Fab analyte
# [4] = molecular target: N276Q/N463Q trimer (PT backbone) (HIV-1 16055 (Indian subtype C)); assay: BLI, trimer on anti-His sensor, Fab analyte
# [5] = molecular target: +N332 N276Q/N360Q/N463Q/N301Q (HIV-1 16055 (Indian subtype C)); assay: negative-stain EM, 2D classes of trimer-Fab complexes
# [6] = molecular target: +N332 PT (HIV-1 16055 (Indian subtype C)); assay: as above
# [7] = molecular target: +N332 N276Q/N360Q/N463Q (HIV-1 16055 (Indian subtype C)); assay: BLI (Octet): trimer on anti-His sensor, Fab in solution, 1:1 global fit
# [8] = molecular target: +N332 N276Q/N360Q/N463Q/N301Q (HIV-1 16055 (Indian subtype C)); assay: as above
# [9] = molecular target: +N332 N301Q (HIV-1 16055 (Indian subtype C)); assay: as above
# [10] = molecular target: +N332 PT (HIV-1 16055 (Indian subtype C)); assay: as above
# [11] = molecular target: 16055 NFL TD CC (T569G) (HIV-1 16055 (Indian subtype C)); assay: as above
# [12] = molecular target: N276Q/N463Q trimer (PT backbone) (HIV-1 16055 (Indian subtype C)); assay: as above
substance,measurement,setting,value
VRC03 Fab,fold difference in affinity vs +N332 PT,[1],10 fold
same,fold difference in affinity vs +N332 PT,[2],8 fold
same,fold lower binding vs +N332 PT,[3],2 fold
same,fold more efficient recognition vs PT,[4],30 fold
same,share of trimers unliganded,[5],22%
same,share of trimers with 1 Fab,[5],23%
same,share of trimers with 2 Fabs,[5],30%
same,share of trimers with 3 Fabs,[5],25%
same,share of trimers unliganded,[6],19%
same,share of trimers with 1 Fab,[6],20%
same,share of trimers with 2 Fabs,[6],34%
same,share of trimers with 3 Fabs,[6],27%
same,Kd,[7],12.9 nM
same,koff,[7],0.000739 s⁻¹
same,kon,[7],57100 M⁻¹ s⁻¹
same,Kd,[8],16.4 nM
same,koff,[8],0.00124 s⁻¹
same,kon,[8],75400 M⁻¹ s⁻¹
same,Kd,[9],270 nM
same,koff,[9],0.0037 s⁻¹
same,kon,[9],13700 M⁻¹ s⁻¹
same,Kd,[10],131 nM
same,koff,[10],0.00204 s⁻¹
same,kon,[10],15600 M⁻¹ s⁻¹
same,Kd,[11],241 nM
same,koff,[11],0.0026 s⁻¹
same,kon,[11],10800 M⁻¹ s⁻¹
same,Kd,[12],8.6 nM
same,koff,[12],0.000505 s⁻¹
same,kon,[12],58700 M⁻¹ s⁻¹

# Source: patent publication US20190135872A1
